According to publication PMC4737156, “Taking a molecular motor for a spin: helicase mechanism studied by spin labeling and PELDOR”:

Tests used:
[1] = molecular target: T1, PcrA E74C/Q506C-R1 (1A-2B) (Bacillus stearothermophilus, UniProt P56255 1-724, E74C;Q506C); assay: PELDOR (DEER) EPR; no nucleotide; distances 35 and 45 A (0.5:1); PELDOR in D2O buffer (composition, pH not given in material): PcrA 70 uM, DNA 150 uM, nucleotide 10-fold excess, 1 mM MgCl2, 5% EG-d6; XPD 40-50 uM, DNA about 2x, nucleotide/MgCl2 1 mM; conditions: protein: recombinant; tags: none stated; hairpin, 11 bp duplex, 3' overhang 10 nt
T1 sequence: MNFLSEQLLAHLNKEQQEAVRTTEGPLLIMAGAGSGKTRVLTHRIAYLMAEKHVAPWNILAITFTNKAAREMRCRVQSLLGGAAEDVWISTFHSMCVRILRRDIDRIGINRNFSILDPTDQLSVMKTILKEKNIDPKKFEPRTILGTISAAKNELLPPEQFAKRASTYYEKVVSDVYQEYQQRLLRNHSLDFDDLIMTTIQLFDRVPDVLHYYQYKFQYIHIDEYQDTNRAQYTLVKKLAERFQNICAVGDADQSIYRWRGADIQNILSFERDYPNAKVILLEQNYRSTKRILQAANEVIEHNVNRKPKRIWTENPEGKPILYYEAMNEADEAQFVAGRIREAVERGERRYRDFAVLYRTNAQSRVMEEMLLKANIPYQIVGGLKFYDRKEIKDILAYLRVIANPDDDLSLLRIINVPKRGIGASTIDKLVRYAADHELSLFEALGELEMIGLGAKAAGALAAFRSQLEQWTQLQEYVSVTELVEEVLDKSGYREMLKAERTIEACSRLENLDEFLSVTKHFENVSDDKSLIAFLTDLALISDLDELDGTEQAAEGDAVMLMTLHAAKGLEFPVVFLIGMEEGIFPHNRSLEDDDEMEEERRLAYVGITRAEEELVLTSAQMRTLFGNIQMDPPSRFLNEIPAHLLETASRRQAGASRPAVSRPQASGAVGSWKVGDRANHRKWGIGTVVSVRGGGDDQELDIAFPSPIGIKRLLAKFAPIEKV

[2] = molecular target: T2, PcrA V344C/Q506C-R1 (2A-2B) (Bacillus stearothermophilus, UniProt P56255 1-724, V344C;Q506C); assay: PELDOR (DEER) EPR; no nucleotide; distances 37.3 and 44.1 A (1:0.7); PELDOR in D2O buffer (composition, pH not given in material): PcrA 70 uM, DNA 150 uM, nucleotide 10-fold excess, 1 mM MgCl2, 5% EG-d6; XPD 40-50 uM, DNA about 2x, nucleotide/MgCl2 1 mM; conditions: protein: recombinant; tags: none stated; hairpin, 11 bp duplex, 3' overhang 10 nt
T2 sequence: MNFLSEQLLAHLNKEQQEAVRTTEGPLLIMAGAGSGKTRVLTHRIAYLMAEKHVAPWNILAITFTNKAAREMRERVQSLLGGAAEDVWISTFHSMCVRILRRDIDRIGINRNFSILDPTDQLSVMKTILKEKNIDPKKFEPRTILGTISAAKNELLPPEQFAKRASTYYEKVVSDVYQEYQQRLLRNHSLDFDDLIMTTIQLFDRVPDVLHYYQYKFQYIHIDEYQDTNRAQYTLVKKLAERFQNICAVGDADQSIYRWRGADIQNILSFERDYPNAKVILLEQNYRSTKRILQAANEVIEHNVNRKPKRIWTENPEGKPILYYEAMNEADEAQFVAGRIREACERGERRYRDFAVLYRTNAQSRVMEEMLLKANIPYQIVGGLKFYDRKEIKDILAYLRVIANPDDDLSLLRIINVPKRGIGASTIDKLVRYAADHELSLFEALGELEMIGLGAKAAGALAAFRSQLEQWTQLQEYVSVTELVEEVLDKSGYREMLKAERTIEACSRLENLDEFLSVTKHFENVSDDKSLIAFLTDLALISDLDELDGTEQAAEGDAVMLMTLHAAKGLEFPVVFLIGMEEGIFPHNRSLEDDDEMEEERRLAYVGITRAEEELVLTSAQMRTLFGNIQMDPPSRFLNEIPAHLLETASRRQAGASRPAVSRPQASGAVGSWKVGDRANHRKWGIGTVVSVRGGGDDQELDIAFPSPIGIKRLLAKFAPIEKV

**Q.** Does CGAGCACTGCTTTAGCAGTGCTCGTTTTTTTTTT (structured_DNA) [hairpin with 3'-(dT)10 overhang] bind [1]?
**A.** binds

**Q.** Does CGAGCACTGCTTTAGCAGTGCTCGTTTTTTTTTT (structured_DNA) [hairpin with 3'-(dT)10 overhang] bind [2]?
**A.** binds
